Reference: patent publication US12098206B2, “PDGF receptor antibody and use thereof” (Seoul National University R&DB Foundation, priority 2018, dated 2024)
Entries after “also recorded” stand apart in the source; their conditions may differ.

Assays:
human pericyte cells = test: Anti-proliferative (cytotoxicity) test in human pericyte cells, cellular ATP; format: cell-based; details: with or without hPDGF-BB; FIGS. 14a and 14b
Experimental: Human pericyte cells were added to 50 μL of DMEM supplemented with 10% FBS and 1% penicillin/streptomycin, placed in a 96-well plate (CLS3595, Corning) and incubated overnight in 5% CO2 at 37° C. incubator. In each well containing 50 μL of cells, 50 μL of 50 anti-hPDGFR-β x cotinine scFv-Cκ-scFv fusion protein (25.6 pM-2 μM) complexed with cot-duo was added and incubated for 72 hours in 5% CO2 and 37° C. incubator.
To evaluate the effect of hPDGF-BB on the toxicity of the complex of the bispecific antibody of scFv-Cκ-scFv and cot-duo, hPDGF-BB (2 nM) was added together with 50 μL of the bispecific antibody scFv-Cκ-scFv and cot-duo complex. The mixed complexes were added to 50 μL of cell-containing solution. The bispecific antibody anti-mCD154 x cotinine scFv-Cκ-scFv was used as a control. Other experimental methods were carried out in the same manner as in the protocol of the anti-mPDGFR-β x cotinine scFv-Cκ-scFv fusion protein in Example 7.
In order to evaluate the toxicity of the anti-hPDGFR-β x cotinine scFv-Cκ-scFv fusion protein and cot-duo complexes, the complex was treated in human pericyte cells with or without hPDGF-BB, and the cells were […] to measure the relative viability. The toxicity of the bispecific antibody of anti-hPDGFR-β x cotinine scFv-Cκ-scFv fusion protein and cot-duo complex was shown by IC50 (Table 8).

[1] = target: T1, NIH3T3 cells expressing mPDGFR-β (Mus musculus, UniProt P05622); test: Flow cytometry binding to NIH3T3 cells expressing mPDGFR-β; details: for binding to NIH3T3 cells: 100 nM, FIG. 18
T1 construct: host or cells: NIH3T3
T1 sequence (P05622 32-1098): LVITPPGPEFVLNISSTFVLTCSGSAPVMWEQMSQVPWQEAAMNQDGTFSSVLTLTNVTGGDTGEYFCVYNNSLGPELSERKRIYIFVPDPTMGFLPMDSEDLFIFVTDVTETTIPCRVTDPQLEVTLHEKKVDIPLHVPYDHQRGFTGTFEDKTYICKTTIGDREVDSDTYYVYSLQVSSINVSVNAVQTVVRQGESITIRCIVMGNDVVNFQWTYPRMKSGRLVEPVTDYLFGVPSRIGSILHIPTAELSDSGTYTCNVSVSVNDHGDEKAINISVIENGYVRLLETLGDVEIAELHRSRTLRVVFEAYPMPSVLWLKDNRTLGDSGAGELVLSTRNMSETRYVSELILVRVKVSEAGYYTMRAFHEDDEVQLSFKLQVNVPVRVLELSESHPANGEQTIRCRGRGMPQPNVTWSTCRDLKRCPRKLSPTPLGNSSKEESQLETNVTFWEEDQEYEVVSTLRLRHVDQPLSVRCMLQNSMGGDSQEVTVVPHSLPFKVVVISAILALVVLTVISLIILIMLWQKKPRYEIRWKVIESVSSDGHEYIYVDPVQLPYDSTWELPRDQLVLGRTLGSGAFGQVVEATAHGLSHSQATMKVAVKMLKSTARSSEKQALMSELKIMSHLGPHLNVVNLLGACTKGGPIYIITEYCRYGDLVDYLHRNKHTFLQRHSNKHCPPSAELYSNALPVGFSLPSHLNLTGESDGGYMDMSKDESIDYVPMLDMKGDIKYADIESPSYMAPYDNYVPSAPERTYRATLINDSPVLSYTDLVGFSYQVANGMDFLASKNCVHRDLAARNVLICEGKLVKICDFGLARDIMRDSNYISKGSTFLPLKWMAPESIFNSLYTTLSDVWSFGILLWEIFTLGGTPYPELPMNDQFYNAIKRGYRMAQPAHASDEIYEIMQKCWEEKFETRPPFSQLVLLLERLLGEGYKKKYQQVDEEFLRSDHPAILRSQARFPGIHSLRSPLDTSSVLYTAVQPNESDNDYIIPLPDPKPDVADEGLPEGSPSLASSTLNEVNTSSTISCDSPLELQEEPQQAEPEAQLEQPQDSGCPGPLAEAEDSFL
Experimental: mPDGF-BB was biotinylated using a biotin-xx microscale protein labeling kit (Invitrogen) according to the manufacturer's instructions. NIH3T3 cells were cultured at 4° C. for 1 hour using the bispecific antibody of scFv-Cκ-scFv fusion protein (100 nM) under two different conditions with or without mPDGF-BB-biotin (100 nM). The cells were washed 4 times with flow cytometry buffer and cultured with allophycocyanin (APC)-anti-human Cκ antibody (clone TB28-2; BD Biosciences, San Jose, CA, USA) and streptavidin-phycoerythrin (PE) (12-4317-87; eBioscience, ThermoFisher). After washing, it was classified and analyzed with a FACS Canto II instrument (BD Biosciences, San Jose, CA, USA). 10,000 cells were used for each measurement, and the results were analyzed by FlowJo (Tree Star, Ashland, OR, USA). […] The binding ability of the other three clones was inhibited by mPDGF-BB.
Specifically, the bispecific antibody scFv-Cκ-scFv fusion protein (100 nM) in flow cytometry buffer was cultured on NIH3T3 cells expressing mPDGFR-β. The cells were treated with APC-anti human Cκ antibody. The bispecific antibody anti-HER2 x cotinine scFv-Cκ-scFv fusion protein was used as a negative control.

Rhesus PDGFR-β = target: T2, Rhesus PDGFR-β (Macaca mulatta, UniProt I0FLK2); test: Cross-species enzyme immunoassay, Rhesus PDGFR-β; format: binding; details: 100 nM; FIG. 17
T2 construct: Fc; purchased Sino Biological Inc. 90215-C02H
T2 sequence (I0FLK2 33-531 limits assumed): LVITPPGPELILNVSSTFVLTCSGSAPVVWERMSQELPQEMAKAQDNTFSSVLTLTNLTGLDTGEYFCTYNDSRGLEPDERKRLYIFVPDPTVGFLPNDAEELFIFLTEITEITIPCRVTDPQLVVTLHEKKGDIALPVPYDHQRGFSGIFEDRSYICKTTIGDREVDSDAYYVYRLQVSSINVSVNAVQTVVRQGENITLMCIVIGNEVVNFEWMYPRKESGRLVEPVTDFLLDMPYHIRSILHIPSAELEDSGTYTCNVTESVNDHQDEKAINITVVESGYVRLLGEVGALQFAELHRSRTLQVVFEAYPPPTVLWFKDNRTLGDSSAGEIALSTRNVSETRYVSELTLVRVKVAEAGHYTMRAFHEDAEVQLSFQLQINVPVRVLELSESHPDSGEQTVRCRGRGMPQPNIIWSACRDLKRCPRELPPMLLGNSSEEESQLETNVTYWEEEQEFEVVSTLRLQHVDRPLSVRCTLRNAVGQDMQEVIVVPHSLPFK
Experimental: (§1) 100 ng of hPDGFR-β, mPDGFR-β, rhesus PDGFR-β (90215-C02H, Sino Biological Inc. Beijing, China), cynomolgus monkey PDGFR-β, Sus scrofa PDGFR-β-Fc chimera or TNF-α receptor extracellular domain-human Fc fusion protein was coated with 4° C. temperature O/N. After blocking the wells, sequential culture of the anti-hPDGFR-β scFv-Cκ-scFv fusion protein and the HRP conjugated anti-human Cκ antibody was followed in the same manner as in Example 3.
(§2) FIG. 17 is a graph showing an experiment of the cross-species reaction of the bispecific antibody against the anti-hPDGFR-β antibody according to the present invention. On the microtiter plates coated with hPDGFR-β, mPDGFR-β, Rhesus PDGFR-β, Cynomolgus monkey PDGFR-β, Sus scrofa PDGFR-β and control Fc coated, the bispecific antibody containing anti-hPDGFR-β antibody according to the present invention (100 nM) was reacted and the amount of bound bispecific antibody was measured using HRP conjugated anti-human Cκ antibody and TMB.

[2] = system: Cynomolgus monkey PDGFR-β; test: Cross-species enzyme immunoassay, Cynomolgus monkey PDGFR-β; format: binding; details: 100 nM; FIG. 17
Sequence of Cynomolgus monkey PDGFR-β (as listed by the source): as the sequence (I0FLK2 33-531 limits assumed) above
Experimental: as §1, §2

[3] = target: T3, human pericyte cells expressing hPDGFR-β (Homo sapiens, UniProt P09619); test: Flow cytometry binding to human pericyte cells expressing hPDGFR-β; details: 100 nM antibody, FIG. 13b
T3 construct: host or cells: human pericyte cells
T3 sequence (P09619 33-1106): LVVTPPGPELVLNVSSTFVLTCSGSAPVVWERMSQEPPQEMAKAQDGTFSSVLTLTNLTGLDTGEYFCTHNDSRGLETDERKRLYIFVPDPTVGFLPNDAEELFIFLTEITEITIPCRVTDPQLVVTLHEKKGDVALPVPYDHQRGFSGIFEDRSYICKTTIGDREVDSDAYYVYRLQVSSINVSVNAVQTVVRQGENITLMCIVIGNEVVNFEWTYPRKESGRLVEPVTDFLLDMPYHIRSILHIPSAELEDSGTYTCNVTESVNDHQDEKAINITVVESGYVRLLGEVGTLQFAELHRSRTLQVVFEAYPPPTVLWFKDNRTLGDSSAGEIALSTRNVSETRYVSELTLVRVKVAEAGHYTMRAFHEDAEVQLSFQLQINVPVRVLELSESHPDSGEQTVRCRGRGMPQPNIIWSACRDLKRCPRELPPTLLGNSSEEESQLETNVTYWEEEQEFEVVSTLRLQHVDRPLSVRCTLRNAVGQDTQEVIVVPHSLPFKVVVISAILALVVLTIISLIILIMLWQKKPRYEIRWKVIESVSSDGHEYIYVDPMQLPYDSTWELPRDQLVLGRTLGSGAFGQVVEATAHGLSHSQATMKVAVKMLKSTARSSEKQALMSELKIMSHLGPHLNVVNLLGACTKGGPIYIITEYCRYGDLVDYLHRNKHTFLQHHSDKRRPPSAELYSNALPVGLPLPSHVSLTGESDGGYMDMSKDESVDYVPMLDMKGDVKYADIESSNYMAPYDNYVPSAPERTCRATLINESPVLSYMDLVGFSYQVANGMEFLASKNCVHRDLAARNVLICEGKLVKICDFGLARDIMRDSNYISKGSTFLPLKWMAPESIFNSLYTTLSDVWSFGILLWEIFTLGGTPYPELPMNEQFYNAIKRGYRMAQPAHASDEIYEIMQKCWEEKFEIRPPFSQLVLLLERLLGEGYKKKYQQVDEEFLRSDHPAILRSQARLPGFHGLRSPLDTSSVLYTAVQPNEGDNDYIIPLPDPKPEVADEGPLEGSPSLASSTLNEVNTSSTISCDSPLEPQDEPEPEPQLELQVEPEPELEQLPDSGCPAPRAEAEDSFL
Experimental: Human pericyte cells were cultured at 4° C. for 1 hour using the bispecific antibody of scFv-Cκ-scFv fusion protein (100 nM) under two different conditions with or without hPDGF-BB-biotin (100 nM, BT220; R&D systems). The cells were washed 4 times with flow cytometry buffer and cultured with allophycocyanin (APC)-anti-human Cκ antibody (clone TB28-2; BD Biosciences, San Jose, CA, USA) and streptavidin-phycoerythrin (PE) (12-4317-87; eBioscience, ThermoFisher). After washing, it was classified and analyzed with a FACS Canto II instrument (BD Biosciences, San Jose, CA, USA). 10,000 cells were used for each measurement, and the results were analyzed by FlowJo (Tree Star, Ashland, OR, USA).

[4] = target: T1, NIH3T3 cells expressing mPDGFR-β; test: Flow cytometry competition against PRb-CN01-rabbit Fc on NIH3T3 cells; format: binding; details: PRb-CN01-rabbit Fc 50 nM, competitor 1 μM, FIG. 19b
Experimental: According to the same manner as in Example 5, PRb-CN01-rabbit Fc (50 nM) and PRb-CN01, control antibody, PRb-CN32 bispecific antibody scFv-Cκ-scFv (1 μM) were cultured on NIH3T3 cells for 1 hour. After washing, it was reacted with FITC-anti rabbit Fc antibody (172-1506, KPL, Gaithersburg, Maryland, USA) at 4° C. for 1 hour. After washing, it was classified and analyzed with a FACS Canto II instrument (BD Biosciences, San Jose, CA, USA). 10,000 cells were identified for each measurement. The results were analyzed by FlowJo (Tree Star, Ashland, OR, USA) (FIG. 19b).

PDGFR-β = PDGFR-β (Homo sapiens, UniProt P09619); test: Competition enzyme immunoassay with hPDGF-BB; format: binding; set-up: made in house; details: hPDGF-BB 100 nM
Sequence of PDGFR-β (P09619 33-531): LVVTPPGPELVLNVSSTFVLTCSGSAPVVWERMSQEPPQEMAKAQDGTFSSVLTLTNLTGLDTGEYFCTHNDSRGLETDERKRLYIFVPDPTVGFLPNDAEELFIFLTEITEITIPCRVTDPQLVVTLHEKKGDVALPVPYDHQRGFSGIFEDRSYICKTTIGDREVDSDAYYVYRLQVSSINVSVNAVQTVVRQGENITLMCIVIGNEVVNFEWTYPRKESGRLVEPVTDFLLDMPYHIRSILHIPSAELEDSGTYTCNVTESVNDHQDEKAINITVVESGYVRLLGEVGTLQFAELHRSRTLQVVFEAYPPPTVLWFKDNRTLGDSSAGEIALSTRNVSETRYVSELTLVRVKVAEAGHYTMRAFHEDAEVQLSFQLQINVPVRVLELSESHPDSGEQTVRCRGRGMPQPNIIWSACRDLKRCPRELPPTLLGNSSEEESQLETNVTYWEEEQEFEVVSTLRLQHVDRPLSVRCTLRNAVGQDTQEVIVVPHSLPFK
Experimental: In order to confirm the competition between the bispecific antibody scFv-Cκ-scFv and hPDGF-BB, as in Example 3, hPDGFR-β-Fc chimera was coated on a microtiter plate and then blocked. The microtiter plate was treated with various concentrations of the bispecific antibody (0.01 nM-1 μM) with or without addition of hPDGF-BB (100 nM; 220-BB; R&D systems), and then incubated at 37° C. for 2 hours. The washing, incubation, and detection were performed in the same manner as the enzyme immunoassay described above.

cross-species binding, Rhesus PDGFR-β (Rhesus PDGFR-β)	cross-species binding, Cynomolgus monkey PDGFR-β [2]	Molecule	toxicity of complex with cot-duo in human pericyte cells, comparison (human pericyte cells)	binding to NIH3T3 cells [1]	cell binding in the presence of hPDGF-BB-biotin [3]	inhibition of binding of PRb-CN01-rabbit Fc to mPDGFR-β on the cell surface [4]	binding ability to hPDGFR-β in the presence of hPDGF-BB (PDGFR-β)	cell binding in the presence of mPDGF-BB-biotin ([1]; 100 nM antibody, mPDGF-BB-biotin 100 nM, FIG. 4b)
confirmed to bind	confirmed to bind	PRb-CN26: anti-hPDGFR-β scFv clone (VH SEQ ID NO 55, VL SEQ ID NO 56), tested as scFv-Cκ-anti-cotinine scFv bispecific antibody (antibody, V domains shown, VH of PRb-CN26; VL of PRb-CN26) VH: AVTLDESGGGLQTPGGGLSLVCKASGFTFSDRGIHWVRQAPGKGLEWVAGIGNTGSYTAYAPAVKGRATISRDNGQSTVRLQLNNLRAEDTATYYCAKRGFMDAGGIDAWGHGTEVIVSSTS VL: LTQPSSVSANPGETVKITCSGGGSYAGSYYYGWYQQKSPGSAPVTVIYDNTNRPSNIPSRFSGSLSGSTDTLTITGVQAEDEAVYFCGGYDGISDTGIFGAGTTLTVL	higher toxicity than control anti-mCD154 x cotinine scFv-Cκ-scFv; also recorded: highest cytotoxicity	–	able to bind to hPDGFR-β in the presence of hPDGF-BB-biotin	–	not inhibited in the presence of hPDGF-BB	–
confirmed to bind	confirmed to bind	PRb-CN16: anti-hPDGFR-β scFv clone (VH SEQ ID NO 39, VL SEQ ID NO 40), tested as scFv-Cκ-anti-cotinine scFv bispecific antibody (antibody, V domains shown, VH of PRb-CN16; VL of PRb-CN16) VH: AVTLDESGGGLQTPGTALSLVCKASGFTFSSFNMAWVRQAPGKGLEFVGEISNTAGSTFYAPAVKGRATISRDNGQSTVRLQLNNLRAEDTAIYYCAKAAGTCYSHSCTGYIDAWGHGTEVIVSSTS VL: LTQPSSVSANPGETVKITCSGSSSSYGWYQQKSPGSAPVTLIYENNQRPSNIPSRFSGSKSGSTGTLTITGVQAEDEAVYYCGNADRSNSAGTFGAGTTLTVL	higher toxicity than control anti-mCD154 x cotinine scFv-Cκ-scFv	–	able to bind to hPDGFR-β in the presence of hPDGF-BB-biotin	–	not inhibited in the presence of hPDGF-BB	–
–	–	PRb-CN01: anti-mPDGFR-β chicken scFv clone (VH SEQ ID NO 7, VL SEQ ID NO 8), tested as scFv-Cκ-anti-cotinine scFv bispecific antibody (antibody, V domains shown, VH of PRb-CN01; VL of PRb-CN01) VH: AVTLDESGGGLQTPGGALSLVCKASGFTFSDRAMHWVRQAPGKGLEWVGLITNTGGSTNYGAAVKGRATISRDNGQSTVRLQLNNLRAEDTGTYYCTRGVGSWAHGGRIDAWGHGTEVIVSS VL: LTQPSSVSANPGETVKITCSGGSGSYGWFQQKSPGSAPVTVIYSNNQRPSDIPSRFSGSKSGSTNTLTITGVQAEDEAIYYCGTRDSSYVGIFGAGTTLTVL	–	bound to NIH3T3 cells	–	inhibited	–	bound to PDGFR-β present on the cell surface

Molecule	cross-species binding, Rhesus PDGFR-β (Rhesus PDGFR-β)	cross-species binding, Cynomolgus monkey PDGFR-β [2]	toxicity of complex with cot-duo in human pericyte cells, comparison (human pericyte cells)	binding to NIH3T3 cells [1]	cell binding in the presence of hPDGF-BB-biotin [3]	inhibition of binding of PRb-CN01-rabbit Fc to mPDGFR-β on the cell surface [4]	binding ability to hPDGFR-β in the presence of hPDGF-BB (PDGFR-β)	cell binding in the presence of mPDGF-BB-biotin ([1]; 100 nM antibody, mPDGF-BB-biotin 100 nM, FIG. 4b)
PRb-CN32: anti-hPDGFR-β scFv clone (VH SEQ ID NO 47, VL SEQ ID NO 48), tested as scFv-Cκ-anti-cotinine scFv bispecific antibody (antibody, V domains shown, VH of PRb-CN32; VL of PRb-CN32) VH: AVTLDESGGGLQTPRGTLSLVCKASGFTFSSFNMFWVRQAPGKGLEFVAGISTTGRYTGYGSAVQGRGTISRDNGQSTVRLQLNNLRAEDTGTYYCAKSAGSTYSYWDSDAGLIDAWGHGTEVIVSSTS VL: LTQPSSVSANLGETVKITCSGGSNAGSYYYGWYQQKSPGSAPVTVIYSNNQRPSDIPSRFSGSTSGSTSTLTITGVQVDDEAVYFCGSGDSSSIAAFGAGTTLTVL	confirmed to bind	confirmed to bind	higher toxicity than control anti-mCD154 x cotinine scFv-Cκ-scFv; also recorded: highest cytotoxicity	bound to NIH3T3 cells	able to bind to hPDGFR-β in the presence of hPDGF-BB-biotin	inhibited	not inhibited in the presence of hPDGF-BB	–
